B1: recombinant GzmK (in vitro syndecan-1 cleavage assay) (enzyme, UniProt P49863 27-264, looked up, species assumed)
Granzyme K: IIGGKEVSPHSRPFMASIQYGGHHVCGGVLIDPQWVLTAAHCQYRFTKGQSPTVVLGAHSLSKNEASKQTLEIKKFIPFSRVTSDPQSNDIMLVKLQTAAKLNKHVKMLHIRSKTSLRSGTKCKVTGWGATDPDSLRPSDTLREVTVTVLSRKLCNSQSYYNGDPFITKDMVCAGDAKGQKDSCKGDSGGPLICKGVFHAIVSGGHECGVATKPGIYTLLTKKYQTWIKSNLVPPHTN
B2: recombinant GzmA (enzyme, UniProt P12544 29-262, looked up, species assumed)
Granzyme A: IIGGNEVTPHSRPYMVLLSLDRKTICAGALIAKDWVLTAAHCNLNKRSQVILGAHSITREEPTKQIMLVKKEFPYPCYDPATREGDLKLLQLMEKAKINKYVTILHLPKKGDDVKPGTMCQVAGWGRTHNSASWSDTLREVNITIIDRKVCNDRNHYNFNPVIGMNMVCAGSLRGGRDSCNGDSGSPLLCEGVFRGVTSFGLENKCGDPRGPGVYILLSKKHLNWIIMTIKGAV

Tested on: T1, recombinant syndecan-1
T1 sequence (P18827 whole entry, species assumed, looked up): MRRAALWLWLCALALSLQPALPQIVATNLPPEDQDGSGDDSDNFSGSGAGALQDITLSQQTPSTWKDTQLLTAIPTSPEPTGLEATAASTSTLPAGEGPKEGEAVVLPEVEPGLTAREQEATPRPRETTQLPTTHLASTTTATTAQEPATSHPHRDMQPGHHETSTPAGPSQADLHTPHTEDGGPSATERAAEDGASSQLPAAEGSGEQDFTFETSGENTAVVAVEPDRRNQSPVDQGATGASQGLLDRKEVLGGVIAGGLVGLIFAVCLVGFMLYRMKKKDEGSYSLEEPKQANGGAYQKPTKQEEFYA

Protein	in vitro syndecan-1 cleavage assay (coomassie gel); GzmK 500 nM, syndecan-1 0.7 ug	in vitro syndecan-1 cleavage assay (coomassie gel); GzmA 500 nM, syndecan-1 0.7 ug
B1	syndecan-1 was cleaved by all three granzymes	–
B2	–	syndecan-1 was cleaved by all three granzymes
